Laboratory results as given in patent publication US8734776B2 (ZymoGenetics, Inc., priority 2003, dated 2014).
Read-outs that look alike come from different tables or passages of the source.

Key:
[1] = test system: encephelomyocarditis virus; assay: Antiviral assay: cytopathic effect in HeLa cells; assay type: cell-based, human
[2] = test system: encephelomyocarditis virus; assay: Antiviral assay: cytopathic effect in L929 cells; assay type: cell-based, mouse
IL-28RA mRNA = assay: Semi-quantitative RT-PCR of IL-28RA, IFNAR2 and CRF2-4 mRNA; assay type: cell-based, human; conditions: HepG2 cells + cytokine
Description: In order to further examine the mRNA distribution for IL-28RA, semi-quantitative RT-PCR was performed using the SDS 7900HT system (Applied Biosystems, CA). One-step RT-PCR was performed using 100 ng total RNA for each sample and gene-specific primers. A standard curve was generated for each primer set using Bjab RNA and all sample values were normalized to HPRT. The normalized values for IFNAR2 and CRF2-4 are also shown.

[3] = test system: human marrow mononuclear cells; assay: Bone marrow expansion assay (Alamar Blue); assay type: cell-based
parainfluenza virus [4] = assay type: cell-based; conditions: MA-104 cells
[5] = test system: respiratory syncytial virus; assay type: cell-based; conditions: MA-104 cells
rhino virus [6] = assay type: cell-based
coxsackie virus [7] = assay type: cell-based; conditions: Coxsackie B4 virus, KB cells
vaccinia virus [8] = assay type: cell-based; conditions: Vero cells
west nile virus [9] = assay type: cell-based; conditions: Vero cells
dengue virus [10] = assay type: cell-based; conditions: Vero cells
[11] = test system: venezuelan equine encephalitis virus; assay type: cell-based; conditions: Vero cells
pichinde virus [12] = assay type: cell-based
polio virus [13] = assay type: cell-based; conditions: Vero cells
adenovirus = assay type: cell-based; conditions: A549 cells
parainfluenza virus [14] = assay type: cell-based; conditions: MA-104 cells; remark: listed apart in the source
[15] = test system: respiratory syncytial virus; assay type: cell-based; conditions: MA-104 cells; remark: listed apart in the source
rhino virus [16] = assay type: cell-based; remark: listed apart in the source
coxsackie virus [17] = assay type: cell-based; conditions: Coxsackie B4 virus, KB cells; remark: listed apart in the source
vaccinia virus [18] = assay type: cell-based; conditions: Vero cells; remark: listed apart in the source
west nile virus [19] = assay type: cell-based; conditions: Vero cells; remark: listed apart in the source
dengue virus [20] = assay type: cell-based; conditions: Vero cells; remark: listed apart in the source
[21] = test system: venezuelan equine encephalitis virus; assay type: cell-based; conditions: Vero cells; remark: listed apart in the source
pichinde virus [22] = assay type: cell-based; remark: listed apart in the source
polio virus [23] = assay type: cell-based; conditions: Vero cells; remark: listed apart in the source
OAS = OAS activity in serum and plasma of mice (RIA)
HHV-8 = HHV-8 replication in BCBL-1 cells (TaqMan PCR)

B1: IL-29: human IL-29, previously designated zcyto21, SEQ ID NO:4 (protein, listed as Homo sapiens)
chain: MAAAWTVVLVTLVLGLAVAGPVPTSKPTTTGKGCHIGRFKSLSPQELASFKKARDALEESLKLKNWSCSSPVFPGNWDLRLLQVRERPVALEAELALTLKVLEAAAGPALEDVLDQPLHTLHHILSQLQACIQPQPTAGPRPRGRLHHWLHRLQEAPKKESAGCLEASVTFNLFRLLTRDLKYVADGNLCLRTSTHPEST
modifications: SIGNAL (1)...(19)
For B1, the “Percentage Cytopathic Effect” value ([1]; relative CM concentration .008X) was 56%, the “Percentage Cytopathic Effect” value ([1]; relative CM concentration .0156X) was 31% and the “Percentage Cytopathic Effect” value ([1]; relative CM concentration .0325X) was 10%. For the same molecule, the “Percentage Cytopathic Effect” value ([1]; relative CM concentration .0625X) was 10%, the “Percentage Cytopathic Effect” value ([1]; relative CM concentration .125X) was 5% and the “Percentage Cytopathic Effect” value ([1]; relative CM concentration .25X) was 0%. The “Percentage Cytopathic Effect” value ([1]; relative CM concentration .5X) was 0%, the “Percentage Cytopathic Effect” value ([2]; relative CM conc. .008X) was 87% and the “Percentage Cytopathic Effect” value ([2]; relative CM conc. .0156X) was 87%. For the same molecule, the “Percentage Cytopathic Effect” value ([2]; relative CM conc. .0325X) was 87%, the “Percentage Cytopathic Effect” value ([2]; relative CM conc. .0625X) was 87% and the “Percentage Cytopathic Effect” value ([2]; relative CM conc. .125X) was 87%. The “Percentage Cytopathic Effect” value ([2]; relative CM conc. .25X) was 87%, the “Percentage Cytopathic Effect” value ([2]; relative CM conc. .5X) was 87% and the “CRF2-4 mRNA normalized to HPRT” value (IL-28RA mRNA) was 3.01. The “IFNAR2 mRNA normalized to HPRT” value (IL-28RA mRNA) was 2.53, the “IL-28RA mRNA normalized to HPRT” value (IL-28RA mRNA) was 2.28 and the “bone marrow cell expansion” value ([3]; in the presence of IL-2 or IL-15) was “small inhibition”. The “expansion of bone marrow cells” value ([3]; in the presence of IL-3, IL-4, IL-5, IL-7, IL-10, IL-12, IL-21 or no added cytokine) was “no significant effect”, the “EC50 Visual” value (parainfluenza virus [4]) was >10 µg/mL and the “IC50 Visual” value (parainfluenza virus [4]) was >10 µg/mL. The “EC50 Visual” value [5] was >10 µg/mL, the “IC50 Visual” value [5] was >10 µg/mL and the “EC50 Visual” value (rhino virus [6]; Rhino 2, KB cells) was >10 µg/mL. For the same molecule, the “IC50 Visual” value (rhino virus [6]; Rhino 2, KB cells) was >10 µg/mL, the “EC50 Visual” value (rhino virus [6]; Rhino 9, HeLa cells) was >10 µg/mL and the “IC50 Visual” value (rhino virus [6]; Rhino 9, HeLa cells) was >10 µg/mL. For the same molecule, the “EC50 Visual” value (coxsackie virus [7]) was >10 µg/mL, the “IC50 Visual” value (coxsackie virus [7]) was >10 µg/mL and the “EC50 Visual” value (vaccinia virus [8]) was >10 µg/mL. The “IC50 Visual” value (vaccinia virus [8]) was >10 µg/mL, the “EC50 Visual” value (west nile virus [9]) was 0.032 ng/mL and the “IC50 Visual” value (west nile virus [9]) was >10 µg/mL. The “EC50 Visual” value (dengue virus [10]) was 0.032 µg/mL, the “IC50 Visual” value (dengue virus [10]) was >10 µg/mL and the “EC50 Visual” value [11] was 0.012 µg/mL. The “IC50 Visual” value [11] was >10 µg/mL, the “EC50 Visual” value (pichinde virus [12]) was >10 µg/mL and the “IC50 Visual” value (pichinde virus [12]) was >10 µg/mL. For the same molecule, the “EC50 Visual” value (polio virus [13]) was >10 µg/mL, the “IC50 Visual” value (polio virus [13]) was >10 µg/mL and the “EC50 NR” value (adenovirus) was >10 µg/mL. The “IC50 NR” value (adenovirus) was >10 µg/mL, the “EC50 NR” value (parainfluenza virus [14]) was >10 µg/mL and the “IC50 NR” value (parainfluenza virus [14]) was >10 µg/mL. For the same molecule, the “EC50 NR” value [15] was >10 µg/mL, the “IC50 NR” value [15] was >10 µg/mL and the “EC50 NR” value (rhino virus [16]; Rhino 2, KB cells) was >10 µg/mL. For the same molecule, the “IC50 NR” value (rhino virus [16]; Rhino 2, KB cells) was >10 µg/mL, the “EC50 NR” value (rhino virus [16]; Rhino 9, HeLa cells) was 0.982 µg/mL and the “IC50 NR” value (rhino virus [16]; Rhino 9, HeLa cells) was >10 µg/mL. For the same molecule, the “EC50 NR” value (coxsackie virus [17]) was >10 µg/mL, the “IC50 NR” value (coxsackie virus [17]) was >10 µg/mL and the “EC50 NR” value (vaccinia virus [18]) was >10 µg/mL. The “IC50 NR” value (vaccinia virus [18]) was >10 µg/mL, the “EC50 NR” value (west nile virus [19]) was 0.00025 µg/mL and the “IC50 NR” value (west nile virus [19]) was >10 µg/mL. The “EC50 NR” value (dengue virus [20]) was 0.05 µg/mL, the “IC50 NR” value (dengue virus [20]) was >10 µg/mL and the “EC50 NR” value [21] was 0.05 µg/mL. The “IC50 NR” value [21] was >10 µg/mL, the “EC50 NR” value (pichinde virus [22]) was >10 µg/mL and the “IC50 NR” value (pichinde virus [22]) was >10 µg/mL. For the same molecule, the “EC50 NR” value (polio virus [23]) was >10 µg/mL, the “IC50 NR” value (polio virus [23]) was >10 µg/mL and the TC50 (BCBL-1 cells) was > 10 µg/mL. For the same molecule, the “OAS activity in the serum and plasma of mice” value (OAS; C57BL/6 mice, i.v, 10 μg-250 μg) was “induced OAS activity”, the “OAS-1 hr (OAS activity)” value (OAS; mouse plasma, 250 μg i.v., 1 hr) was 80 pmol/dL and the “OAS-6 hr (OAS activity)” value (OAS; mouse plasma, 250 μg i.v., 6 hr) was 80 pmol/dL. The “OAS-24 hr (OAS activity)” value (OAS; mouse plasma, 250 μg i.v., 24 hr) was 180 pmol/dL, the “OAS-48 hr (OAS activity)” value (OAS; mouse plasma, 250 μg i.v., 48 hr) was 200 pmol/dL and the “TI (TC50/IC50)” value (HHV-8) was > 1.85. The “IC50 HHV-8 viral replication” value (HHV-8; extracellular HHV-8 DNA) was 6.5 µg/mL.
